± gives the uncertainty stated by the source.

The nature of this data set: amyloid nucleation score (Sup35N fusion, yeast selection) (log enrichment); library NNK1; higher = more nucleation; inactive = no reads after selection. The method in brief:
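For the nucleation score, DiMSum gave the log enrichment of output over input reads, centred on the mode score of non-aggregating sequences. Psi-negative yeast expressing Sup35N fused to peptides of 20 random codons were induced with 100 μM copper sulfate for 24 hours and grown 7 days at 30°C on medium lacking adenine and uracil. Input and output plasmid inserts were Illumina-sequenced, and sequences with under 100 input reads were excluded.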
The substance ILERSHRVGYCAHLLCISVN yielded an amyloid nucleation score of 0.171 ± 0.63.
Substance ILFGTAHCIIG displayed an amyloid nucleation score of 1.52 ± 0.13.
As for ILGVSMPPFYSV, the figure is -0.532 ± 0.84; as for ILHDNFKSSELFAWSAYCRY, “inactive”.
With ILIDYRGSEPG, the amyloid nucleation score came to 0.224 ± 1.4.
In the case of ILKATHGSHDIYPAWNGRIS, the amyloid nucleation score was 3.2 ± 0.12.
As for ILNYVRPCS, the figure is 0.416 ± 0.56; as for ILPEPGMLFDIILNLHAKKF, 2.65 ± 0.11; as for ILSGVFLIRIEAKSNK, -0.179 ± 1.2.
Then ILSRCVC, with 0.608 ± 0.37.
Then ILVHSMGFLGKRYCGCMWGD, with 3.41 ± 0.13; and ILVVGWFFHLGCLTMSDVVV, with 0.225 ± 1.1; and ILYFLPNFHIMLSLI, with “inactive”.
In turn, ILYMLPILRKLVSFEFNYIC had an amyloid nucleation score of 0.117 ± 0.21.
Then ILYTCSSQSASFTGLWTSGL, with 2.03 ± 0.16; and IMNMSSNIRK, with -0.539 ± 0.34.
As for IMSCDERWN, the figure is 0.287 ± 0.23; as for IMTPIRGNN, 0.209 ± 0.34.
Then IMVANVSPSQKFNG, with 0.346 ± 0.4; and IMVHWMIYCGRMYLHCSSIV, with 0.086 ± 0.97; and INAFYVVLIIRYVPSSKLLI, with “inactive”.
INCQMWYRGPYIIQFLNLGW displayed an amyloid nucleation score of 6.846 ± 0.055.
As for INGFYCCRV, the figure is 0.787 ± 0.21; as for INLNRHGSLE, 1.6 ± 0.39.
Then INMYWY, with -0.031 ± 0.31; and INNIVK, with 0.602 ± 0.29.
Then INQLRITWLD, with 2.46 ± 0.12.
INSNWASLRDRYARIASRSS yielded an amyloid nucleation score of -0.372 ± 0.47.
Then IPLAGLFYSFWISLHTRSNT, with -0.308 ± 0.52.
In turn, IPMPLCCVIPPWFTTFFVNQ showed an amyloid nucleation score of 4.81 ± 0.092.
As for IPRYVYIGLTPKAVLKQNLA, the figure is -1.04 ± 0.84.
As for IQNDCILVNSVSWYCVSGPP, the figure is 5.29 ± 0.064; as for IQTKGNKDVIGVYITMYTRL, -0.671 ± 0.28.
Substance IQYNSKIRVFALDYPIEFPC came in with an amyloid nucleation score of 0.083 ± 0.61.
Then IREFRRL, with 0.313 ± 0.65; and IRMVMGTNKFDHVKSRDN, with “inactive”; and IRNIRRI, with -0.262 ± 0.28.
Substance IRPLIFVIGHN had an amyloid nucleation score of 0.794 ± 0.5.
Substance IRTMSGNDKPI gave an amyloid nucleation score of -0.36 ± 0.33.
For IRWTEL, the amyloid nucleation score came to 0.512 ± 0.24.
In the case of ISFCGTRGFK, the amyloid nucleation score came out at 0.154 ± 0.75.
Then ISGRVGAWSPIVYWPLRRGG, with -0.573 ± 0.61; and ISGSHFVSLPV, with 0.518 ± 0.38; and ISGTLGSRVMGLSAWVRVSR, with -0.114 ± 0.38.
As for ISIRIEDFLYSQ, the figure is 0.237 ± 0.57.
As for ISLDFDNYRVILLKRLVGVM, the figure is -0.594 ± 0.33; as for ISNYNFNRWHAVSNLGRCIS, -0.033 ± 0.73; as for ISSLTV, -1.33 ± 0.68.
Regarding ISTRQMFVYLRVHCFIDAVE, the amyloid nucleation score was 0.043 ± 0.48.
In turn, ISTSC returned an amyloid nucleation score of 0.778 ± 0.49.
With ISVHIFKGLYRSKSVAWRNV, the amyloid nucleation score was -0.069 ± 1.1.
Regarding ISVLVHMMRKAFVQG, the amyloid nucleation score amounted to 0.768 ± 0.39.
Then ISWQAVTSRGTCNN, with -1.01 ± 0.68; and ISYRNLIRFCFSPYAKLWRF, with 0.69 ± 0.52; and ITEVLKNVKKWFCFIRISVG, with 0.113 ± 0.5.
Then ITFERGYCTKNITFATTTCP, with 1.23 ± 0.47.
In turn, ITPGLVAPSPDTKCSACDIL had an amyloid nucleation score of 0.074 ± 0.34.
As to ITRSWLT, the amyloid nucleation score is -0.12 ± 0.3.
As for ITSIANFLWIL, the figure is 3.03 ± 0.069.
In the case of ITYKLFVISCNEKRNLICHN, the amyloid nucleation score is -0.477 ± 0.32.
As for ITYKSFYHIQCFSGTSCKRF, the figure is 3.1 ± 0.11; as for IVENARWKVAAEPRNRRSSV, 0.273 ± 0.58.
As for IVGKQSVLYYDSVFVTWMYK, the figure is -0.509 ± 0.3; as for IVGMASRCRGFR, 1.11 ± 0.71.
Then IVLDT, with 0.227 ± 0.29; and IVLRDFHGLSWAWSLIVHVK, with 0.039 ± 0.88; and IVPAEAVLRRLQRFLRWLVV, with -0.245 ± 1.1.
Turning to IVVFQ, the amyloid nucleation score is -0.887 ± 1.8.
Then IVWESLFNKFAITVGMLGFM, with 1.63 ± 0.43; and IWCVFIQWLCSRRVERQSCR, with 4.31 ± 0.11; and IWDASKVGSYAELHTLM, with 0.744 ± 0.33.
As for IWGDKIHGFHGVIMMQSGMV, the figure is -0.762 ± 0.71; as for IWKKLITNWMAYLTLNNFAL, “inactive”.
Then IWLDCIGRYSGVYRHVINDV, with -0.863 ± 0.37; and IWQFDWPHRGIEMRVRRDMT, with 0.135 ± 0.69.
In turn, IYCGNSEF registered an amyloid nucleation score of -0.048 ± 0.79.
As for IYFFIPFSPVGDTDRSFWGY, the figure is -0.059 ± 0.98.
Then IYFGFCRD, with 2.02 ± 0.089; and IYFVIDCN, with 0.835 ± 0.56; and IYGIMLG, with “inactive”.
Regarding IYIIPFDRNLYPISIHVLVR, the amyloid nucleation score entry is “inactive”.
As for IYLCLATYFLYPRLVWTSTL, the figure is 0.521 ± 0.72; as for IYLKWHFADY, 0.529 ± 0.45.
Then IYLMIGHWESNNKLNICVLP, with 3.7 ± 0.11; and IYMCIGWQ, with 7.268 ± 0.044.
IYMMECEVL displayed an amyloid nucleation score of -0.157 ± 0.42.
Then IYMYIVNRRVTGSFRF, with -0.136 ± 0.23.
The substance IYRLTCETEVRCGTFNDIVD returned an amyloid nucleation score of 0.105 ± 0.21.
As for IYTVVRAVCMGPGSGWLFRK, the figure is -1.05 ± 1.2; as for IYVRGRMRVMGARH, -1.26 ± 1.5.
As for IYWRILEL, the figure is -0.034 ± 0.85; as for IYYMYYLYHYWMILRENDFM, 0.151 ± 0.21; as for KAFLTRRFLNLYVRIKPYMV, -0.503 ± 0.3.
Then KAGRGICESYRSFHPRPVFA, with 0.034 ± 0.4; and KCGIVVNVQHRKPRGRIPAQ, with -1.02 ± 0.67; and KDICY, with 0.864 ± 0.51.
KDQTTYMDCFV: the amyloid nucleation score worked out at 0.101 ± 0.49.
As for KELCCRASSDLMLRWQVKVF, the figure is 0.027 ± 1.4; as for KELKYCVFALVVAD, 0.012 ± 0.63.
As for KFDPVKQYLCMYFFTYQIES, the figure is 2.06 ± 0.15.
Then KFFLRNGVAGTTVLLVQGLQ, with “inactive”.
Turning to KFIEMRRNKSPKHLPAWASD, the amyloid nucleation score stood at 0.911 ± 0.54.
In turn, KFMLWPNIWMN had an amyloid nucleation score of 0.916 ± 0.54.
As for KFYSMKTSNFWCI, the figure is 2.04 ± 0.18; as for KGHRCNIVTTNTAPRFPW, -0.482 ± 0.91; as for KGKECKRFLVNTKIGSNRT, “inactive”.
For KGRVKGSVASSLS, the amyloid nucleation score is -0.309 ± 0.57.
Then KGTCCPPLPVILDIMEDSSR, with -0.227 ± 0.38.
As for KGVHGYCRRIM, the entry is “inactive”; as for KHCRVSPNVSECAFKGAMCL, 1.17 ± 0.63; as for KHICTAFRSVEFAEGIR, 0.658 ± 0.46.
Then KHLYVR, with -0.752 ± 0.56.
For KIDGRPVHIPRFRYDNDNKV, the amyloid nucleation score was -0.359 ± 0.47.
For KIKVPRIVLVCKCILFNNLW, the amyloid nucleation score is 1.51 ± 0.34.
Turning to KILCMSCFTNSYHARWTFIL, the amyloid nucleation score was found to be 5.694 ± 0.051.
Then KIMCELCNSVRNALWRTLRG, with -0.01 ± 0.71.
As for KIMLSRMYNQYMGCQVKFW, the figure is -0.409 ± 0.51.
Then KITHLFFKSSYVIVKLLYVI, with 0.082 ± 0.51.
Take KKGLSKMVKPVYSCLN: the amyloid nucleation score was -1 ± 1.6.
Turning to KKMIFTVVVECSKLWPLRVV, the amyloid nucleation score stood at 0.399 ± 0.69.
Then KKYVRGWGAFLAMQHGGMM, with -0.604 ± 0.6.
In turn, KLALRKGSRDVH had an amyloid nucleation score of 0.661 ± 0.97.
Then KLARTMGYTGTSMVACFCVV, with “inactive”.
Then KLFDYAVYLC, with 0.936 ± 0.5.
Consider KLFESYVLSRGMVPETVKAV, for which the amyloid nucleation score was determined as 0.226 ± 0.78.
Then KLFLLGAINGQFI, with 4.87 ± 0.066; and KLLSGGVNTWRPTGTSRLEI, with -0.053 ± 0.46; and KLPRTCAPLYHMLTHGVGHR, with -0.075 ± 0.72.
Then KLQVGSPN, with -0.053 ± 1.4.
As for KLSGMIAEMRAGPCTYRILY, the figure is -0.511 ± 0.45; as for KLSNEYW, -0.485 ± 0.36; as for KLTQKCHKCLH, 0.107 ± 0.68.
Turning to KLVLRGVFIIDFWSNARRAS, the amyloid nucleation score was found to be 0 ± 0.29.
As for KLYGLVFFLVYGNDGSKRDL, the figure is 0.779 ± 0.36; as for KMAYRVVNNLGCSIMCNICT, 7.616 ± 0.046.
Then KMIPMTYASKVLKCRLFEVK, with 1.14 ± 0.76; and KMLVGHS, with 0.087 ± 0.83.
As for KMMPWVLLGRKLRLWRLCTK, the figure is -0.463 ± 0.56.
The substance KMRKIDAR came in with an amyloid nucleation score of 2.63 ± 0.11.
As for KMSGTLQ, the figure is -0.115 ± 1.4; as for KMYLLRIQ, 0.661 ± 0.82; as for KNFAVRWNPVTSDWFVTLSV, -0.429 ± 0.4.
Then KNFWKGVLYSIRCHNQWNVG, with 5.41 ± 0.092.

These data come from the supplement of paper PMC12042874.
